Experiment [1] addresses human Gi heterotrimer (human) (UniProt P63096).
Experiment [2] concerns the target human Gq heterotrimer (human) (UniProt P50148).

The values that follow come from paper PMC11295067.

Sequence of human Gi heterotrimer (human) (P63096 whole entry, looked up, one chain of several): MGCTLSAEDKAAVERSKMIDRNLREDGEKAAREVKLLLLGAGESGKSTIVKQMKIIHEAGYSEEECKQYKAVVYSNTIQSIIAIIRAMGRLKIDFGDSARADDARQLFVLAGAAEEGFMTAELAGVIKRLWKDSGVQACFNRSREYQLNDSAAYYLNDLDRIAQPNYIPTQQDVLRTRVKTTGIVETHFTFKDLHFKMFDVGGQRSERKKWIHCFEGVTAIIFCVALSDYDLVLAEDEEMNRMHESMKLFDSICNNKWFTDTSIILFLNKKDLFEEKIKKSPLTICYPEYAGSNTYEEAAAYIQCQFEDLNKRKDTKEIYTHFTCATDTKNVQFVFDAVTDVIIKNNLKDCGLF
Sequence of human Gq heterotrimer (human) (P50148 whole entry, looked up, one chain of several): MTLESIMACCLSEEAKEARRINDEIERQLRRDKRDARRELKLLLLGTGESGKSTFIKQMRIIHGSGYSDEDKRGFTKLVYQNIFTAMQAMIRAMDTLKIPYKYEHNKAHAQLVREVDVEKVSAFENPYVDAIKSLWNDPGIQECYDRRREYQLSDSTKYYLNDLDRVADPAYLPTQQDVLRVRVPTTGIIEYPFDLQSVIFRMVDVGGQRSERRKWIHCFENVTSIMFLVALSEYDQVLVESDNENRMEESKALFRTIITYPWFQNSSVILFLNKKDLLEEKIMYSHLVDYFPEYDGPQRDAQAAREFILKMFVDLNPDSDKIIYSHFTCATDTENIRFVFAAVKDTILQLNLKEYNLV

In experiment [1], “Jumping Spider Rhodopsin-1 (JSR1) reconstituted with 9-cis retinal (receptor)” returned a GTPase-Glo assay: GTP depletion by Gi heterotrimer with JSR1/9-cis retinal, after illumination of 92% and a GTPase-Glo assay: GTP depletion by Gi heterotrimer with JSR1/9-cis retinal, without illumination of 57%. In experiment [2], this substance returned a GTPase-Glo assay: GTP depletion by Gq heterotrimer with JSR1/9-cis retinal, after illumination of 44% and a GTPase-Glo assay: GTP depletion by Gq heterotrimer with JSR1/9-cis retinal, without illumination of 7%.
